Results published in US20080107658A1 (AstraZeneca / MedImmune, published 2008).

Tests used:
Assay in all cases: cell-based or functional assay
[1] = target: rat nerve growth factor (beta-NGF) (rat, UniProt P25427 122-241)
[2] = target: mouse nerve growth factor (mouse, UniProt P01139 122-241)
[3] = target: human nerve growth factor (beta-NGF) (human, UniProt P01138 122-241)
Chain of human nerve growth factor (beta-NGF) (P01138 122-241): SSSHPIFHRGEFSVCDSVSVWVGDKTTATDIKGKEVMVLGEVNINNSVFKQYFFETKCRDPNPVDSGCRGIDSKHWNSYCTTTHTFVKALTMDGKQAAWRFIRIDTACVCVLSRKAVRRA

Chain of mouse nerve growth factor (P01139 122-241): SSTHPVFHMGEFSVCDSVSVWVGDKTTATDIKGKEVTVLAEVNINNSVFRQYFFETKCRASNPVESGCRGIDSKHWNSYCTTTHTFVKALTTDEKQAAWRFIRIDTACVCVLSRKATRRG
Chain of rat nerve growth factor (beta-NGF) (P25427 122-241): as the sequence (P01139 122-241) above, with A40G, R50K, S61P, E94D, T117A counted along it

Row | Binder | IC50, FLIPR calcium mobilisation [1] | IC50, PC12 cell survival [1] | IC50, TF-1 cell proliferation [1] | IC50, FLIPR calcium mobilisation [2] | IC50, TF-1 cell proliferation [2] | IC50, FLIPR calcium mobilisation [3] | IC50, PC12 cell survival [3] | IC50, TF-1 cell proliferation [3]
1 | 1133C11 human IgG4 (antibody, V domains shown) VH: EVQLVQSGAEVKKPGSSVKVSCKASGGTFSTYGISWVRQAPGQGLEWIGGIIPIFDTGNSAQSFQGRVTITADESTSTAYMEVSSLRSDDTAVYYCASSSRIYDLNPSLTAYYDMDVWGQGTMVTVSS VL: QAVLTQPSSVSTPPGQKVTISCSGSSSNIGNNYVSWYQQLPGTAPKLLIYDNNKRPSGIPDRFSGSKSGTSATLGITGLQTGDEADYYCGTWDSSLSAWVFGGGTKLTVL | 300 pM | 420 pM | 120 pM | 280 pM | 100 pM | 450 pM | 530 pM | 100 pM
2 | 1152H5 human IgG4 (antibody, V domains shown) VH: EVQLVQSGAEVKKPGSSVKVSCKASGGTFSTYGISWVRQAPGQGLVWIGGIIPIFDTGNSAQSFQGRVTITADESTSTAYMEVSSLRSDDTAVYYCASSSRIYDMISSLQPYYDMDVWGQGTMVTVSS VL: QAVLTQPSSVSTPPGQKATISCSGSSSNIGNNYVSWYQQLPGTAPKLLIYDNNKRPSGIPDRFSGSKSGTSATLGITGLQTGDEADYYCGTWDSSLSAWVFGGGTKLTVL | 210 pM | 380 pM | 80 pM | 140 pM | 70 pM | 220 pM | 400 pM | 260 pM
3 | 1165D4 human IgG4 (antibody, V domains shown) VH: EVQLVQSGAEVKKPGSSVKVSCKASGGTFSTYGISWVRQAPGQGLEWIGGIIPIFDTGNSAQSFQGRVTITADESTSTAYMEVSSLRSDDTAVYYCASSSRIYDLNPSLTAYYDMDVWGQGTMVTVSS VL: QAVLTQPSSVSTPPGQKVTISCSGSSSNIENNYVSWYQQLPGTAPKLLIYDNNKRPSGIPDRFSGSKSGTSATLGITGLQTGDEADYYCGTWDSSLSAWVFGGGTKLTVL | 150 pM | 410 pM |  | 160 pM |  | 260 pM | 410 pM | 
4 | 1155H1 human IgG4 (antibody, V domains shown) VH: EVQLVQSGAEVKKPGSSVKVSCKASGGTFSTYGISWVRQAPGQGLEWIGGIIPIFDTGNSAQSFQGRVTITADESTSTAYMEVSSLRSDDTAVYYCASSSRIYDFHLANKGYYDMDVWGQGTMVTVSS VL: QAVLTQPSSVSTPPGQKATISCSGSSSNIGNNYVSWYQQLPGTAPKLLIYDNNKRPSGIPDRFSGSKSGTSATLDITGLQTGDEADYYCGTWDSSLSAWVFGGGTKLTVL | 180 pM |  |  | 180 pM |  | 350 pM | 590 pM | 
5 | 1158A1 human IgG4 (antibody, V domains shown) VH: EVQLVQSGAEVKKPGSSVKVSCKASGGTFSTYGISWVRQAPGQGLEWIGGIIPIFGTGNSAQSFQGRVTITADESTSTAYMEVSSLRSDDTAVYYCASSSRIYDHHNHVGGYYDMDVWGQGTMVTVSS VL: QAVLTQPSSVSTPPGQKVTISCSGSSSNIGNNYASWYQQLPGTAPKLLIYDNNKRPSGIPDRFSGSKSGTSATLGITGLQTGDEADYYCGTWDGSLSAWVFGGGTKLTVL | 120 pM |  |  | 110 pM |  | 340 pM | 480 pM | 
6 | 1160E3 human IgG4 (antibody, V domains shown) VH: EVQLVQSGAEVKKPGSSAKVSCKASGGTFSTYGISWVRQAPGQGLEWIGGIIPIFDTGNSAQSFQGRVTITADESTSTAYMEVSSLRSDDTAVYYCASSSRIYDLNPSLTAYYDMDVWGQGTMVTVSS VL: QAVLTQPSSVSTPPGQKVTISCSGSNSNIGNNYVSWYQQLPGTAPKLLIYDNNKRPSGIPDRFSGSKSGTSATLGITGLQTGDEADYYCGTWDSSLSAWVFGGGTKLTV | 130 pM |  |  | 120 pM |  | 330 pM | 400 pM | 
7 | G1165D4 human IgG4 (antibody, V domains shown) VH: QVQLVQSGAEVKKPGSSVKVSCKASGGTFSTYGISWVRQAPGQGLEWMGGIIPIFDTGNSAQSFQGRVTITADESTSTAYMELSSLRSEDTAVYYCARSSRIYDLNPSLTAYYDMDVWGQGTMVTVSS VL: QSVLTQPPSVSAAPGQKVTISCSGSSSNIENNYVSWYQQLPGTAPKLLIYDNNKRPSGIPDRFSGSKSGTSATLGITGLQTGDEADYYCGTWDSSLSAWVFGGGTKLTV | 330 pM | 2630 pM |  | 270 pM |  | 320 pM | 860 pM | 
8 | 1175H8 human IgG4 (antibody, V domains shown) VH: EVQLVQSGAEVKKPGSSVKVSCKASGGTFSTYGISWVRQAPGQRLEWIGGIIPIFDTGNSAQSFQGRVTITADESTSTAYMEVSSLRSDDTAVYYCASSSRIYDATTGLTPYYDMDVWGQGTMVTVSS VL: QAVLTQPSSVSTPPGQKVTISCSGSSSNIGNNYVSWYQQLPGTAPKLLIYDNNKRPSGIPDRFSGSKSGTSATLGITGLRTGDEADYYCGTWDSSLSAWVFGGGTKLTVL | 150 pM |  |  | 160 pM |  | 370 pM | 1100 pM | 
9 | 1211G10 human IgG4 (antibody, V domains shown) VH: EVQLVQSGAEVRKPGSSVKVSCKAYGGTFSTYGISWVRQAPGQGLEWVGGIIPIFDTRNSAQSFQGRVTITADESTSTAYMEVSSLRSDDTAVYYCASSSRIYDMVSTLIPYYDMDVWGQGTMVTVSS VL: QAVLTQPSSVSTPPGQKVTISCSGSSSNIGNNYVSWYQQLPGTAPKLLIYDNNKRPSGIPDRFSGSKSGTSATLGITGLQTGDEADYYCGTWDSSLSAWVFGGGTKLTVL | 160 pM |  |  | 150 pM |  | 370 pM | 580 pM | 
10 | 1214A1 human IgG4 (antibody, V domains shown) VH: EVQLVQSGAEVKKPGSSVRVSCKASGGTFSTYGISWVRQAPGQGLEWIGGIIPIFDTGNSAQSFQGRVTITADESTSTAYMEVSSLRSDDTAVYYCASSSRIYDAHLQAYYDMDVWGQGTMVTVSS VL: QAVLTQPSSVSTPPGQKVTISCSGSSSNIGNNYVSWYQQLPGTAPKLLIYDNNKRPPGIPDRFSGSKSGTSATLGITGLQTGDEADYYCGTRDSSLSAWVFGGGTKLTVL | 160 pM | 430 pM |  | 140 pM |  | 260 pM | 520 pM | 
11 | 1214D10 human IgG4 (antibody, V domains shown) VH: EVQLVQSGAEAKKPGSSVKVSCKASGGTFSTYGISWVRQAPGRGLEWIGGIIPIFDTGNSAQSFQGRVAITADESTSTAYMEVSSLRSDDTAVYYCASSSRIYDAHLNHHGYYDMDVWGQGTMVTVSS VL: QAVLTQPSSVSTPPGQKVTISCSGSSSNIGNNYVSWYQQLPGTAPKLLIYDNNKRPSGIPDRFSGSKSGTSATLGITGLQAGDEADYYCGTWDSSLSAWVFGGGTKLTVL | 140 pM |  |  | 130 pM |  | 290 pM | 350 pM | 
12 | 1218H5 human IgG4 (antibody, V domains shown) VH: EVQLVQSGAVVKKPGSSVKVSCKASGGTFSTYGISWVRQAPGQGLEWIGGIIPIFDTGSSAQSFQGRVTITADESTSTAYMEVSSLRSDDTAVYYCASSSRIYDLNPSLTAYYDMDVWGQGTMVTVSS VL: QAVLTQPSSVSTPPGQKVTISCSGSSSNTGNNYVSWYQQLSGTAPKLLIYDNNKRPSGIPDRFSGSKSGTSATLGITGLQTGDEADYYCGTWDSSLSAWVFGGGTKLTVL | 130 pM |  |  | 150 pM |  | 330 pM | 470 pM | 
13 | 1227H8 human IgG4 (antibody, V domains shown) VH: QMQLVQSGAEVKKTGSSVKVSCKASGHTFAYHYLHWVRQAPGQGLEWMGGIIPIFGTTNYAQRFQDRVTITADESTSTAYMELSSLRSEDTAVYYCASADYAWESYQPPQINGVWGRGTMVTVSS VL: QSVLTQPPSVSAAPGQKVTITCSGSTSNIGNNYVSWYQQHPGKAPKLMIYDVSKRPSGVPDRFSGSKSGNSASLDISGLQSEDEADYYCAAWDDSLSEFFFGTGTKLTVL | 430 pM | 35000 pM |  | 480 pM |  | 440 pM | 700 pM | 
14 | 1230D8 human IgG4 (antibody, V domains shown) VH: QMQLVQSGAEVKKTGSSVKVSCKASGYTFPYHYLHWVRQAPGQGLEWMGGIIPIFGTTNYAQRFQDRVTITADESTSTAYMEFSSLRSEDTAVYYCASADYVWESYHPATSLSLWGRGTMVTVSS VL: QSVLTQPPSVSAAPGQKVTISCPGSTSNIGNNYVSWYQQRPGKAPKLMIYDVSKRPSGVPDRFSGSKSGNSASLDISELQSEDEADYYCAAWDDSLSEFLFGTGTKLTVL | 290 pM | 37000 pM |  | 370 pM |  | 310 pM | 710 pM | 
15 | 1230H7 human IgG4 (antibody, V domains shown) VH: EMQLVQSGAEVKKPGSSVKVSCKASGGTFSTYGISWVRQAPGQGLEWIGGIIPIFDTGNSAQSFQGRVTITADESTSTAYMEVSSLRSDDTAVYYCASSSRIYDFNSALISYYDMDVWGQGTMVTVSS VL: QAVLTQPSSVSTPPGQKVTISCSGSSSNIGNNYVSWYQQLPGTAPKLLIYDNNKRPSGIPDRFSGSKSGTSATLGITGLQTGDEADYYCGTWDSSLSAWVFGGGTKLTV | 180 pM | 320 pM |  | 150 pM |  | 270 pM | 420 pM | 
16 | G1230H7 human IgG4 (antibody, V domains shown) VH: QVQLVQSGAEVKKPGSSVKVSCKASGGTFSTYGISWVRQAPGQGLEWMGGIIPIFDTGNSAQSFQGRVTITADESTSTAYMELSSLRSEDTAVYYCARSSRIYDFNSALISYYDMDVWGQGTMVTVSS VL: QSVLTQPPSVSAAPGQKVTISCSGSSSNIGNNYVSWYQQLPGTAPKLLIYDNNKRPSGIPDRFSGSKSGTSATLGITGLQTGDEADYYCGTWDSSLSAWVFGGGTKLTVL | 340 pM | 7500 pM |  | 250 pM |  | 310 pM | 2500 pM | 
